Test results as given in PMC7083068 (Journal of thrombosis and haemostasis : JTH, 2019).

Molecular target: human recombinant FVIII (Advate) (human, UniProt P00451 20-2351)
Assay: ELISA

human recombinant FVIII (Advate), sequence (P00451 20-2351): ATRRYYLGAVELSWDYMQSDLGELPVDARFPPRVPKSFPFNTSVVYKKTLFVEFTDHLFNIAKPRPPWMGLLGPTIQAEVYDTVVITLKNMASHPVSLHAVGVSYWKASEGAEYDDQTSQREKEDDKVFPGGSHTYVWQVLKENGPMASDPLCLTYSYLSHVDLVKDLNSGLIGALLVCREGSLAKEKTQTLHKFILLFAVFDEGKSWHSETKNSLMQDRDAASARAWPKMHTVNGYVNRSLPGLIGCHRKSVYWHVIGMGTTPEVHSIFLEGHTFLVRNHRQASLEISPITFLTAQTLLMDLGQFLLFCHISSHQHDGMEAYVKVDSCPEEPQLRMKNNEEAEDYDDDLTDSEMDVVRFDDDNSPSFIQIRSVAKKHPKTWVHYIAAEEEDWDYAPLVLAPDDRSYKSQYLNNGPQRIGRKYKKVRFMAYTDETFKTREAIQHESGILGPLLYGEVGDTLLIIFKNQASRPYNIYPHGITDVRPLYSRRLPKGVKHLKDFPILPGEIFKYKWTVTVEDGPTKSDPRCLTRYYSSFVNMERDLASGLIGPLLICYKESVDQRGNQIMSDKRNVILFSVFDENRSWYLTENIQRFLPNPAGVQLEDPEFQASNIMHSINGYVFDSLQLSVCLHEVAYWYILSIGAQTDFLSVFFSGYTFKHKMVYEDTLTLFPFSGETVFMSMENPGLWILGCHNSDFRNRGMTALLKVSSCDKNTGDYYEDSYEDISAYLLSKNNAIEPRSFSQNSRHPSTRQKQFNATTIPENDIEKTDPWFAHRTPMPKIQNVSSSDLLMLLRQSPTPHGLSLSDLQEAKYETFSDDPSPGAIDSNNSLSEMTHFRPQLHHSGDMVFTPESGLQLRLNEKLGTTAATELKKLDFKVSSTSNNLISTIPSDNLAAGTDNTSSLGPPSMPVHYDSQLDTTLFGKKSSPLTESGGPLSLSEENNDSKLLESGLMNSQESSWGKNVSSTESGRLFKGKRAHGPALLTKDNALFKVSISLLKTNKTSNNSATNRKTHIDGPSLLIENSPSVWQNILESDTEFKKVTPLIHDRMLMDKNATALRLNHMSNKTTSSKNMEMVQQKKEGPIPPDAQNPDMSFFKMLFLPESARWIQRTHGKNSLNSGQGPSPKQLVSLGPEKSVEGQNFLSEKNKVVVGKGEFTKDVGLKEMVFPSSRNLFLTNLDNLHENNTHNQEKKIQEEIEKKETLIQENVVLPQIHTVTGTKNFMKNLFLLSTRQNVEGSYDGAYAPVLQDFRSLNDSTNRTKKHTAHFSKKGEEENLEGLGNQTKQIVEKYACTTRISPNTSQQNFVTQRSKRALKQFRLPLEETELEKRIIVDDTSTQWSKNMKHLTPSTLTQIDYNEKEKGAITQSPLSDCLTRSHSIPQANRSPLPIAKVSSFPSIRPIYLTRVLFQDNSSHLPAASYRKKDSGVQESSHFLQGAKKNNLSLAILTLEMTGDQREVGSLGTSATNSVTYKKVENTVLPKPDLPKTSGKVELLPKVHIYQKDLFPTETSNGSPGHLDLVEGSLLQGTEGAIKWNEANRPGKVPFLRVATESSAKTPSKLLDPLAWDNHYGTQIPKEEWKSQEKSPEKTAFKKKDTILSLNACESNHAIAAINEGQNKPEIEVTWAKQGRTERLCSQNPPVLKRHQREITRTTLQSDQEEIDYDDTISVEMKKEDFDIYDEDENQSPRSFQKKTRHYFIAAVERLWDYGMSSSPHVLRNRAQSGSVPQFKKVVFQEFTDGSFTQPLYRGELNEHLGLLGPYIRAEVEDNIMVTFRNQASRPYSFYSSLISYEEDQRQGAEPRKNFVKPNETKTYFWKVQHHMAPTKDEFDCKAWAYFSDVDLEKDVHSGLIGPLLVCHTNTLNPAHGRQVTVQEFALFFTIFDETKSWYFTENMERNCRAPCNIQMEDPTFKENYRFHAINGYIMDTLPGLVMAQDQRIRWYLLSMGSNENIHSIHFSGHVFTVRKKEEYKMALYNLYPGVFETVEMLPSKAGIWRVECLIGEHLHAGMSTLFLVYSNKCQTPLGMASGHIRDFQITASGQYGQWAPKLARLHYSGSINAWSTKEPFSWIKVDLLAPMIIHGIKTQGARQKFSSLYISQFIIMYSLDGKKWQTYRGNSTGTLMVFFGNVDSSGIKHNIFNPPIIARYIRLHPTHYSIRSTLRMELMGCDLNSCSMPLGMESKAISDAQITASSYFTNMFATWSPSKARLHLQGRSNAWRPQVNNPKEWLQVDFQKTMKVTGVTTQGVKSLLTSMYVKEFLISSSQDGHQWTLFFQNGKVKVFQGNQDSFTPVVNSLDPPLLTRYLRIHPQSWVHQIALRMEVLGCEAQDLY

B1: recombinant CLEC4M-Fc chimera (Fc fusion, human, UniProt Q9H2X3 71-399, looked up)
chain: QVSKVPSSLSQEQSEQDAIYQNLTQLKAAVGELSEKSKLQEIYQELTQLKAAVGELPEKSKLQEIYQELTRLKAAVGELPEKSKLQEIYQELTRLKAAVGELPEKSKLQEIYQELTRLKAAVGELPEKSKLQEIYQELTELKAAVGELPEKSKLQEIYQELTQLKAAVGELPDQSKQQQIYQELTDLKTAFERLCRHCPKDWTFFQGNCYFMSNSQRNWHDSVTACQEVRAQLVVIKTAEEQNFLQLQTSRSNRFSWMGLSDLNQEGTWQWVDGSPLSPSFQRYWNSGEPNNSGNEDCAEFSGSGWNDNRCDVDNYWICKKPAACFRDE
**Q.** B1 was tested. Which Kd did it give?
**A.** The Kd was under 0.1 nM.
